T1: PUF4 RNA-binding domain (Saccharomyces cerevisiae, UniProt P25339 537-888)
T1 sequence: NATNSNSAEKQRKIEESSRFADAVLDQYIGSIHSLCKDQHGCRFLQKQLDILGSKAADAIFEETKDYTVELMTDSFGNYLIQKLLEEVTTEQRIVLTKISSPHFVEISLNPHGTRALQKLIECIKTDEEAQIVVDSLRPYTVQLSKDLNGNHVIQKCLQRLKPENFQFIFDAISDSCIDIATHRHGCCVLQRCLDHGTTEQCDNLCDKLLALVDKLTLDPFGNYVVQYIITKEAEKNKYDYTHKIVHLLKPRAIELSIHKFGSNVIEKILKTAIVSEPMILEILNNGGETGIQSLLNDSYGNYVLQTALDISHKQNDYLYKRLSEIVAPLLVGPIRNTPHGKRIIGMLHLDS


Target: T1, PUF4 RNA-binding domain
Assay: Mg; RNA-MaP; 20 mM Na-HEPES pH 7.4, 30 mM KOAc, 0.75 mM MgCl2, 0.1% Tween-20, 5% glycerol, 0.1 mg/mL BSA, 2 mM DTT; 25 C; 0.0125-409.6 nM protein
Conditions: tags: N-His6-TEV cleaved; C-SNAP kept, Cy3B-labelled; label: tethered on chip by stalled RNA polymerase

Binder | Kd [nM]
Ib_S4_P3E.1_K3.1_C3.1_H3.1_A3.1_[A6T]_F3.1_[A8T]_T3.1 (ssRNA) RNA: UUUGACAACUGAUCGUUCUUUCUUGUAUUUUUUCUUUCUCGAUCAGUUGUCUUU | 11.9
Ib_S4_P3E.1_K3.1_C3.1_H3.1_[T1G]_[A4C]_A3.1_F3.1_T3.1 (ssRNA) RNA: UUUGACAACUGAUCGUUCUUUCUGGUCUAUAUUCUUUCUCGAUCAGUUGUCUUU | > 2300
Ib_S4_P3E.1_K3.1_C3.1_H3.1_[T1C]_[A4C]_A3.1_F3.1_T3.1 (ssRNA) RNA: UUUGACAACUGAUCGUUCUUUCUCGUCUAUAUUCUUUCUCGAUCAGUUGUCUUU | > 2300
Ib_S4_P3E.1_K3.1_C3.1_H3.1_[T1A]_[A4C]_A3.1_F3.1_T3.1 (ssRNA) RNA: UUUGACAACUGAUCGUUCUUUCUAGUCUAUAUUCUUUCUCGAUCAGUUGUCUUU | > 2300
ACAAACAGUAUUAUUAACAAAC (ssRNA) [Ia_S3_P5E.1_K5.1_C5.1_H5.1_[T1A]_A5.1_F5.1_T5.1] | 1980
Ib_S4_P3E.1_K3.1_C3.1_H3.1_[G2C]_[A4G]_A3.1_F3.1_T3.1 (ssRNA) RNA: UUUGACAACUGAUCGUUCUUUCUUCUGUAUAUUCUUUCUCGAUCAGUUGUCUUU | 2.45
Ib_S4_P3E.1_K3.1_C3.1_H3.1_[G2C]_[A4C]_A3.1_F3.1_T3.1 (ssRNA) RNA: UUUGACAACUGAUCGUUCUUUCUUCUCUAUAUUCUUUCUCGAUCAGUUGUCUUU | > 2300
Ib_S4_P3E.1_K3.1_C3.1_H3.1_[G2C]_[A4T]_A3.1_F3.1_T3.1 (ssRNA) RNA: UUUGACAACUGAUCGUUCUUUCUUCUUUAUAUUCUUUCUCGAUCAGUUGUCUUU | 1800
Ib_S4_P3E.1_K3.1_C3.1_H3.1_[G2T]_[A4G]_A3.1_F3.1_T3.1 (ssRNA) RNA: UUUGACAACUGAUCGUUCUUUCUUUUGUAUAUUCUUUCUCGAUCAGUUGUCUUU | 3.32
Ib_S4_P3E.1_K3.1_C3.1_H3.1_[G2A]_[A4G]_A3.1_F3.1_T3.1 (ssRNA) RNA: UUUGACAACUGAUCGUUCUUUCUUAUGUAUAUUCUUUCUCGAUCAGUUGUCUUU | 5.75
Ib_S4_P3E.1_K3.1_C3.1_H3.1_[T3C]_[A4G]_A3.1_F3.1_T3.1 (ssRNA) RNA: UUUGACAACUGAUCGUUCUUUCUUGCGUAUAUUCUUUCUCGAUCAGUUGUCUUU | 1160
Ib_S4_P3E.1_K3.1_C3.1_H3.1_[T3C]_[A4C]_A3.1_F3.1_T3.1 (ssRNA) RNA: UUUGACAACUGAUCGUUCUUUCUUGCCUAUAUUCUUUCUCGAUCAGUUGUCUUU | > 2300
Ib_S4_P3E.1_K3.1_C3.1_H3.1_[T3C]_[A4T]_A3.1_F3.1_T3.1 (ssRNA) RNA: UUUGACAACUGAUCGUUCUUUCUUGCUUAUAUUCUUUCUCGAUCAGUUGUCUUU | 2120
Ib_S4_P3E.1_K3.1_C3.1_H3.1_[T1G]_A3.1_[T5C]_F3.1_T3.1 (ssRNA) RNA: UUUGACAACUGAUCGUUCUUUCUGGUACAUAUUCUUUCUCGAUCAGUUGUCUUU | 1810
Ib_S4_P3E.1_K3.1_C3.1_H3.1_[T1C]_A3.1_[T5A]_F3.1_T3.1 (ssRNA) RNA: UUUGACAACUGAUCGUUCUUUCUCGUAAAUAUUCUUUCUCGAUCAGUUGUCUUU | > 2300
ACAAACUGUCUUAUUAACAAAC (ssRNA) [Ia_S3_P5E.1_K5.1_C5.1_H5.1_[A4C]_A5.1_F5.1_T5.1] | 365
Ib_S4_P3E.1_K3.1_C3.1_H3.1_[T1A]_A3.1_[T5C]_F3.1_T3.1 (ssRNA) RNA: UUUGACAACUGAUCGUUCUUUCUAGUACAUAUUCUUUCUCGAUCAGUUGUCUUU | > 2300
Ib_S4_P3E.1_K3.1_C3.1_H3.1_[T1A]_A3.1_[T5A]_F3.1_T3.1 (ssRNA) RNA: UUUGACAACUGAUCGUUCUUUCUAGUAAAUAUUCUUUCUCGAUCAGUUGUCUUU | > 2300
Ib_S4_P3E.1_K3.1_C3.1_H3.1_[T1G]_A3.1_[A6G]_F3.1_T3.1 (ssRNA) RNA: UUUGACAACUGAUCGUUCUUUCUGGUAUGUAUUCUUUCUCGAUCAGUUGUCUUU | 198

Binder | Kd [nM]
Ib_S4_P3E.1_K3.1_C3.1_H3.1_[T1G]_A3.1_[A6C]_F3.1_T3.1 (ssRNA) RNA: UUUGACAACUGAUCGUUCUUUCUGGUAUCUAUUCUUUCUCGAUCAGUUGUCUUU | > 2300
Ib_S4_P3E.1_K3.1_C3.1_H3.1_[T1C]_A3.1_[A6T]_F3.1_T3.1 (ssRNA) RNA: UUUGACAACUGAUCGUUCUUUCUCGUAUUUAUUCUUUCUCGAUCAGUUGUCUUU | > 2300
Ib_S4_P3E.1_K3.1_C3.1_H3.1_[T1A]_A3.1_[A6G]_F3.1_T3.1 (ssRNA) RNA: UUUGACAACUGAUCGUUCUUUCUAGUAUGUAUUCUUUCUCGAUCAGUUGUCUUU | 225
Ib_S4_P3E.1_K3.1_C3.1_H3.1_[T1A]_A3.1_[A6C]_F3.1_T3.1 (ssRNA) RNA: UUUGACAACUGAUCGUUCUUUCUAGUAUCUAUUCUUUCUCGAUCAGUUGUCUUU | > 2300
Ib_S4_P3E.1_K3.1_C3.1_H3.1_[T1A]_A3.1_[A6T]_F3.1_T3.1 (ssRNA) RNA: UUUGACAACUGAUCGUUCUUUCUAGUAUUUAUUCUUUCUCGAUCAGUUGUCUUU | > 2300
Ib_S4_P3E.1_K3.1_C3.1_H3.1_[G2A]_A3.1_[T5C]_F3.1_T3.1 (ssRNA) RNA: UUUGACAACUGAUCGUUCUUUCUUAUACAUAUUCUUUCUCGAUCAGUUGUCUUU | 383
Ib_S4_P3E.1_K3.1_C3.1_H3.1_[G2A]_A3.1_[T5A]_F3.1_T3.1 (ssRNA) RNA: UUUGACAACUGAUCGUUCUUUCUUAUAAAUAUUCUUUCUCGAUCAGUUGUCUUU | 2080
UCUCUUUGCAUAUAUCUCUU (ssRNA) [Ia_S1_P3E.1_K3.1_C3.1_H3.1_[T3C]_A3.1_F3.1_T3.1] | > 2300
Ia_S4_P3E.1_K3.1_C3.1_H3.1_A3.1_F3.1_[T7A]_T3.1 (ssRNA) RNA: UUUGACAACUGAUCGUUCUUUCUUGUAUAAAUUCUUUCUCGAUCAGUUGUCUUU | 54.5
Ib_S4_P3E.1_K3.1_C3.1_H3.1_[G2T]_A3.1_[A6T]_F3.1_T3.1 (ssRNA) RNA: UUUGACAACUGAUCGUUCUUUCUUUUAUUUAUUCUUUCUCGAUCAGUUGUCUUU | > 2300
Ib_S4_P3E.1_K3.1_C3.1_H3.1_[G2A]_A3.1_[A6G]_F3.1_T3.1 (ssRNA) RNA: UUUGACAACUGAUCGUUCUUUCUUAUAUGUAUUCUUUCUCGAUCAGUUGUCUUU | 72.2
Ib_S4_P3E.1_K3.1_C3.1_H3.1_[G2A]_A3.1_[A6T]_F3.1_T3.1 (ssRNA) RNA: UUUGACAACUGAUCGUUCUUUCUUAUAUUUAUUCUUUCUCGAUCAGUUGUCUUU | 1900
Ib_S4_P3E.1_K3.1_C3.1_H3.1_[A4G]_A3.1_[T5C]_F3.1_T3.1 (ssRNA) RNA: UUUGACAACUGAUCGUUCUUUCUUGUGCAUAUUCUUUCUCGAUCAGUUGUCUUU | 22.4
Ib_S4_P3E.1_K3.1_C3.1_H3.1_[A4C]_A3.1_[T5C]_F3.1_T3.1 (ssRNA) RNA: UUUGACAACUGAUCGUUCUUUCUUGUCCAUAUUCUUUCUCGAUCAGUUGUCUUU | 443
Ib_S4_P3E.1_K3.1_C3.1_H3.1_[A4C]_A3.1_[T5A]_F3.1_T3.1 (ssRNA) RNA: UUUGACAACUGAUCGUUCUUUCUUGUCAAUAUUCUUUCUCGAUCAGUUGUCUUU | 1450
Ib_S4_P3E.1_K3.1_C3.1_H3.1_[A4G]_A3.1_[A6C]_F3.1_T3.1 (ssRNA) RNA: UUUGACAACUGAUCGUUCUUUCUUGUGUCUAUUCUUUCUCGAUCAGUUGUCUUU | 117
Ib_S4_P3E.1_K3.1_C3.1_H3.1_[A4G]_A3.1_[A6T]_F3.1_T3.1 (ssRNA) RNA: UUUGACAACUGAUCGUUCUUUCUUGUGUUUAUUCUUUCUCGAUCAGUUGUCUUU | 92.3
Ib_S4_P3E.1_K3.1_C3.1_H3.1_[A4C]_A3.1_[A6G]_F3.1_T3.1 (ssRNA) RNA: UUUGACAACUGAUCGUUCUUUCUUGUCUGUAUUCUUUCUCGAUCAGUUGUCUUU | 40.5
Ib_S4_P3E.1_K3.1_C3.1_H3.1_[A4C]_A3.1_[A6C]_F3.1_T3.1 (ssRNA) RNA: UUUGACAACUGAUCGUUCUUUCUUGUCUCUAUUCUUUCUCGAUCAGUUGUCUUU | 1370

— article PMC9352680, “A comprehensive thermodynamic model for RNA binding by the Saccharomyces cerevisiae Pumilio protein PUF4”
